According to paper PMC6290062, “Characterization of a Novel, Cold-Adapted, and Thermostable Laccase-Like Enzyme With High Tolerance for Organic Solvents and Salt and Potent Dye Decolorization Ability, Derived From a Marine Metagenomic Library” (Frontiers in Microbiology, 2018):

Key:
Assay in all cases: purified protein
Settings in all cases: 0.04 M Britton-Robinson buffer, pH 7.0, 60°C
COc1ccccc1O = assay type: biochemical, uncultured bacterium
[1] = tested on: COc1cc(C=NN=Cc2cc(OC)c(O)c(OC)c2)cc(OC)c1O
Oc1ccccc1O = tested on: Oc1ccccc1O

Question: Lac1326 (uncultured bacterium) was tested. Which Km (COc1ccccc1O) did it give?
Answer: Its Km is 4900 µM.

Question: What about the kcat (COc1ccccc1O) of the same substance?
Answer: Its kcat is 1.34 s⁻¹.

Question: And the kcat/Km (COc1ccccc1O)?
Answer: The kcat/Km was 270 M⁻¹ s⁻¹.

Question: And the Km [1]?
Answer: Its Km is 831 µM.

Question: And the kcat [1]?
Answer: The kcat was 24.1 s⁻¹.

Question: What about the kcat/Km [1] of the same substance?
Answer: The kcat/Km was 29000 M⁻¹ s⁻¹.

Question: And the Km (Oc1ccccc1O)?
Answer: The Km was 507 µM.

Question: What about the kcat/Km (Oc1ccccc1O) of the same substance?
Answer: The kcat/Km was 28000 M⁻¹ s⁻¹.
